What was measured:
Assay in all cases: cell-based or functional assay
[1] = target: Efb (S. aureus virulence factor) (Staphylococcus aureus) (UniProt A6QG59)
amyloid β peptide Aβ1-40 = amyloid β peptide Aβ1-40 (UniProt P05067)
[2] = target: gp120 of clade A HIV strains

Efb (S. aureus virulence factor) (Staphylococcus aureus), sequence (A6QG59 30-165 limits assumed): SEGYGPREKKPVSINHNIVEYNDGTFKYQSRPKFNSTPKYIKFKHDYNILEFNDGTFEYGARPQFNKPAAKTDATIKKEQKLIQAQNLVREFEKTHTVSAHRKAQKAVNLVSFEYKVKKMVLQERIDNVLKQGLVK

B1: IgVL2-t 2E6 (protein)
chain: QSALTQPASVSGSPGQSITISCTGTSSDVGGYNYVSWYQQHPGKAPKLMISEVSNRPSGVSNRFSGSKSGNTASLTISGPQTEDEADYYCSSYTSSSTPVVFGGGTQLTVLGSSGGGGSGGGGSGGSALDIQLTQSPSSLPASVGDRVTITCRASQSISSYLNWYQQKPGKAPKLLIYAASSLQSGVPSRFSGSGSGTDFTLTISSLQPEDFATYYCQQSYSTHTFGQGTKLEIKRAAAHHHHHHGAAEQKLISEEDLNGAA
- % Bt-Efb cleavage [1]: > 20%
- 125I-Aβ1-40 hydrolyzing activity, specific activity, preparation AEQ (fmol/h/mg protein) (amyloid β peptide Aβ1-40): 1160
- 125I-Aβ1-40 hydrolyzing activity, specific activity, preparation MA1 (fmol/h/mg protein) (amyloid β peptide Aβ1-40): 380
- 125I-Aβ1-40 hydrolyzing activity, specific activity, preparation MA2 (fmol/h/mg protein) (amyloid β peptide Aβ1-40): 368
- 125I-Aβ40 hydrolysis, activity in the absence of a competitor peptide (amyloid β peptide Aβ1-40): 2590 cpm/hour
- Km (amyloid β peptide Aβ1-40): 80 µM
- kcat (amyloid β peptide Aβ1-40): 0.3 min⁻¹
- kcat/Km (amyloid β peptide Aβ1-40): 3700 M⁻¹ min⁻¹

B2: scFv JL427 (scFv)
scFv: QSVLTQPPSVSGAPGQRVTISCSGSSSNFGLNYVYWYQHFPGTAPKLLIYRNDQRPLGVPARFSGSKSGTSASLAISGLRSEDEADYYCQSYDNSLSGWVFGGGTQLTVLGSSGGGGSGGGGSGGSALQVQLQQSGGGLVQPGRSLRLSCAASGFTFSSYGMHWVRQAPGKGLEWVSYIGRSGSHTNYADSVKGRFTISRDNSKNTLYLQINSLRAEDTAVYYCARGLPNYGMDIWGQGTTVTVSSGSASAPTLFPAAAHHHHHHGAAEQKLISEEDLNGAA
- HIV neutralization IC50 [2]: 0.2 µg/mL

Reference: patent US20100183614A1
